Laboratory results from the nanobody polyreactivity screen of Harvey et al. (2022).

Test: yeast display, Sf9 membrane polyspecificity reagent, FACS + sequencing; frameworks hold sequencing errors
Summary of the method: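 Galactose induction of a Saccharomyces cerevisiae BJ5465 synthetic nanobody display library ran 36–48 hours. The cells were then stained for 1 hour at 4 °C with 10% biotinylated, detergent-solubilized Sf9 membrane reagent, pulled down on streptavidin microbeads and FACS-sorted into low and high (top ~1%) gates on expression and reagent-binding fluorescence. Labels for polyreactivity follow the gate of origin.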

Sequence	polyreactivity (PSR sort gate)
QVQLVESGGGLVQAGGSLRLSCAASGSTFTGYAMGWYRQAPGKERELVAAISISGGRTFYADSVKGRFTISRDNAKNTVYLQMNSLKPEDTAVYFCAAYLRGSKYSFDYWVQGTQVTVSS	high polyreactivity
QVQLVESGGGLVQAGGSLRLSCAGSGSTFRYYVLGWYRAAPGKDRVLVARITSAASTNYADSVKGRFTISRDNAKTTVNLQMNSLKPEDTPVYYCAADAYWIRSRFLYRIRYNYWGQGTQVTVSS	high polyreactivity
QVQLVESGGGLVQAGGSLRLSCAASGRTFRSYDMGWYRQAPGKERELVAAISEDGGYTYYADSVKGRFTISRDNAKITVYLQMNSLKPEDTAVYYCAKDRPGPLRWWFLYGYWGQGTQGTVSS	low polyreactivity
QVQLVESGGALVQAGGSLRLSCAASGSLFERYAMGWYRQAPVKEREFVATITSGGGRTYYADSVKGRFTISRDNAKNTVYLQMNSLQPEDTAVYYCTAVYRARSYDYWGQGTQVTVSS	high polyreactivity
QVQLVESGGGLVQAGGSLRLSCAASGIIFQYYAMGWYRQAPGKERELVAAISWSGGSTYYADSVKGRFTISRDNAKNTVYLQMNSLKPEDTAVYYCAARSRSYWPYEGDYWGQGTQVTVSS	low polyreactivity
QVQLVESGGGLVLAGGSLRLSCAASGGTFARYAMGWYRQAPGKERELVAAISRGGSTNYADSVKGRFTISRDNAKNTVYLQMNSLKPEDTAVYYCAAGSRRAAWYDYSYPYGYWGQGTQVTVSS	high polyreactivity
QVQLVESGGGLVQAGGSLRLSCAASGSTFDYNAMGWYRQAPGKERELVAGISGGSSTNYADSVKGRFTISRDNAKNTVYLQMNSLKPEDTAVYYCNAQRLPLRYEMDYWGQGTQVTVSS	low polyreactivity
QVQLVESWGGLVQAGGSLRLSCAASGIIFAAYAMGWYRQAPGKERELVATITSSGGSTFYADSVKGRFTISRDNAKNTVYLQMNSLKPEDTAVYYCAADTWGLWFWGPLFSKYGYWGQGTQVTVSS	low polyreactivity
QVQLVESGGGLVQAGGSLRLSCAASASTFYSYTMGWSRQAPGKERELVAAISRSGGRTYYADSVKGRFTISRDNAKNTVYLQMNSLKPEDTAVYYCAARWLGVDDYEYWGQGTQVTVSS	high polyreactivity
QDQHVESGGCLVQAGGSLRLSCAASGRTFVRNTMGWYRQAPGKEREFVAAISRSGGNTHYADSVKGRFTISRDNAKNTVYLQMNSLKPEDTAVYYCATRAGYEVYPNKMNYWGQGTQVTVSS	high polyreactivity
QVQLVESGGGLVQAGGSLRLSCAASGNTFAFNAMVWYRQAPGKEREFVAAISYSGVSTYYADSEKGRFTISRDNAKNTVYLQMNSLKPEDTAVYYCAARYGWYKYWYDYWGQGTQGTVSS	high polyreactivity
QVQIVESGGGLVQAGGSLRLSCAASGITFDTYVMGWYRQAPGKERELVATISESVGNTYYADSVKGRFTISRDNEKNTVYLQMNILKPEDTAVDYCYTSRYYTIYTYYYWGQGTQVTVSS	low polyreactivity
QVQLVESGGGLVQAGGSLRLSCAASGRTFFIYAMGWYRQAPGKERELVAAIRWRGGSTYYADSVKGRFTISRDNAKNTVYLQMNSLKPEDTAVYYCAASTRQARYEDYYWGQGTQVTVSS	high polyreactivity
QVQLVESGGGLVQAGGSLRLSCAASGSIFRFNAMGWSRQAPGKERELVARITSGGSTNYADSVKGRFTISRDNAKNTVYLQMNSLKPEDTAVYYCAAVYLLRGRRVTSYPYGYWGQGTQVTVSS	high polyreactivity
QVQLVESGGGLVQAGGSLRLSCAASGSTFDRYAMGWYRQAPGKERELVAAISWSGGSTYYADSVKGRFTISRDNAKNTVYLQMNSLKREDTAVYYCARRYARITPVYPPLNYWGQGTQVTVSS	high polyreactivity
QVQLVESGGGLVQAGGSLRLSCAASGIIFQGNAMGWYRQAPGKERELVAAISSGGSTYYADSVKGRFTISRDNAKNTVYLQMNSLKPEDTAVYYCNAGAYVRYDYWGQGTQVTVSS	low polyreactivity
QVQLVESGGGLVQAGGSLRLSCAASGITFRRYAMGWYRQAPGKERELVASITSNGGSTYYADSVKGRFTISRDTAKNTVYLQMNSLKPEDTAVYYFAADFAVGQWLTQTSVEYDYWGQGTQLTVSS	high polyreactivity
QFQLVESGGGLVQAGGSLRLSCAASGRIFGDNAMGWYRQAPGKERELVADIDSGGRTNYADSVKGRFTISRDNAKNTVYLQMNSLKPEDTAVYYCARDDIAYLVEYDYWGQGTQVTVSS	low polyreactivity
QVQLVESGGGLVQAGGSLRLSCAASGRTFTGSVMGWYRKAPGKERELVAAISWNGGRTYYADSVKGRFTLSRDNAKNTVYLQMYSLKPEDTGVYLCGTYGYNSYDYWGHGTQVTVSS	high polyreactivity
QVQLVESGGGLVQAGGSLRLSCAASGFILAGYAMGWSRQAPGKERELVAAINSRGTRTYYADSVKGRFTISRDNAKNTVYLQMNSLKPEDTAVYYCAVHVWGTYGSWEYYYWGQGTQVTVSS	high polyreactivity
QVQLVESGGGLVQAGGSLRLSCAASGFTFGPNTMGWYRQAPGKERELVAAISARGGRTYYADSVKGRFTISRDTAKNTVYLQMNSLKPEDTAVYYCAAPGYVRTGVTYGGYYWGQGTQVTVSS	high polyreactivity
QGQLEESGGGLVQAGGSLRLSCAAYGRIFYEYAMGLYRQAPGKERELVAISTAGCNTYYADSVKGRFTISRDNGKNTDYLQMNILKPEDTAVYYCAARLQYYPYYYWGQGTQVTVSS	high polyreactivity

Sequence	polyreactivity (PSR sort gate)
QVQLVESGGGLVQAGGSLRLSCAASGRIFRAYAMGWYRQAPRKERELVAAISYRGGSTYYADSVKGRFTISRDNAKNTVYLQMNSLKPEDTAVYDCAADSDRSVWIYGYWGQGTQVTVSS	low polyreactivity
QVQLVESGGGLVQAGGSLRLSCAASGFIFNFYAMGWYRQAPGKERELVAAISRSGGRTYYADSVKGRFTISRDNAKNTVYLQMNSLKPEDTAVYYCAAVTKSLYGYDYWGQGTQVTVSS	low polyreactivity
QVQLVESGGGLVQAGGSLRLSCAASGSIFGDNAMGWYRQAPGKERELVAAISSSGGSTYADSVKGRFTISRDNAKNTVYLQMNSLKPEDTAVYYCATQIAWGTYVINPQMDYWGQGTQVTVSS	low polyreactivity
QVQLVESGGGLVQAGGSLRLSCAASGSIFDPYAMGWYRQAPGKEREFVAAISWSGGSTYYADSVKGRFTISRDNAKNTVYLQMNSLIPEDTAVYYCAAGTQWYSQVYIYYYWGQGTQVTVSS	low polyreactivity
QVQLVETGGGLVQAGGSLRLSCAASGSIFRDNAMGWYRQAPGKESELVAAINVRDGDTFYADSVKGRFTISRDNAKNTVYLQMNSLKPEDTAVYYCAVAGATSYFAYDSWGQGTQVTVSS	low polyreactivity
QVQLVESGGGLVQAGGSLRLSCAASGRTIPIYAMGWYRQEPGKERYLVAAITYSGGSTYYADSVKGRFTISRDNAKNSVYLQMNSLKPEDTAVYYCAVDGTKPYWHQRYVYWGQGTQVTVSS	low polyreactivity
QVQLVESGGGLVQAGGSLRLSCAASGFTFSKYAMGWYRQAPGKERELVAAISRSAGSTYYADSVKGRFTISRDNAKNTVYLQMNSLKPEDNAVYYCARDNPRSPSGYNYWGQGSQVTVSS	high polyreactivity
QDQQVESGGGLVQAGGSLRLSSAASGRTFGTYALGWYRQARGNERELVAAITKSGGSTYYADSVKGRFIISRDNAKNTVYLQMNSLKPEDTAVYYCAAAVPRYRVYYWGQGTQVTVSS	high polyreactivity
QVQLVESGGGLVQAGGSLRLSCAASGLTFSRYAMGWYRQAPGTERELVAVISRSGGSTYYADSVKGRFTISRDNAKNTVYLQMNSLIPEDTAVYYCAVRAYIKMDYWGQGTQVTVSS	high polyreactivity
QVQLVESGGGLVQAGGSLRLSCAASGFTFYYYTMGWYRQAPGKQRELVAAITWRGGSTNYADSVKGRFTISRDNAKNTVFLQMNSLKPEDTAVYYCAAVSYWFWPGMDYWGQGTQVTVSS	low polyreactivity
QVQLVESGGGLVQAGGSLRLSCAASGRIFCDNGMGWYRQAPAKESELVTYADSVKGLFTISRDNAKNTVYLQMNSLKPEDTAVYYCNKDPPRFSGLDENYWGQGTQVTVSS	low polyreactivity
QVQLVESGGGLVQAGGSLRLSCAASGSTFTYYTMGWYRQAPGKERELVAAITSGTSTNYADSVKGRFTISRDNAKNTVYLQMNSLKPEDTAVYYEYDYWGQGTQVTVSS	low polyreactivity
QVQLVESGGGLVQAGGSLRLSCPASGFTFKSYAMGWYRQAPGKERELVAAISRGGSTYYADSVKGRFTISRDNAKNTVYLQMNSLKPEDTAVYYCNKTRYSRSYYEYDYWGQGTQVTVSS	low polyreactivity
QVQLVESGGGLVQAGGSLRLSCAASGSILSYYAMGWYRQAPGKEREFVAAISSGGGTYYADSVKGRFTISRDNAKNTVYLQMNSLKPEDTAVYYCNAEIWTEGGYWGQGTQVTVSS	low polyreactivity
QVQLVESGGGLVQAGGSLRLSCAASGFTFNRYAMGWYRQAPGKERELVAAITSGGRTYYADSVKGRFTISRDNAKNTVYLQMNSLKPEDTAVYYCATLYVRNVSGYDYWGQGTQVTVSS	high polyreactivity
QVQLVESGGGLVQAGGSLRLSCAASGIIFDTNAMGGYRQAPGKERELVATITQRGGTTYYADSVKGRFTISRDNEKYTVYLQMNSLKPEDTAVYYCNAGPVRLPYDSWGQGTQVTVSS	low polyreactivity
QVQLVESGGGLVQAGGSLRLSCAASGRIFYGYTMGWYRQAPGKERELVAAITWSGVSTYADSVKGRFTISRDNAKNTVYLQMNSLKPEDTAVYYCNADPIYGKRWRYYYWGQGTQVTVSS	high polyreactivity
QVQLVESGVGLVQAGGSLRLSCAASGSTFPKNVMGWYRQAPGKERELVAAINYSGTSTYYADSVKGRFTISRDNAKNTVYLQMNSLKPEDTAVYYCAARFPLVRYNYWGQGTQVTVSS	high polyreactivity
QDQLVESGGGLVQAGGSLRLSCAASGRIFLYNAMGWYRQAPGKERELVAAIDGGGTTYADSVKGRFTISRDNAKNTVYLQMNSLKPEDTAVYYCAADWYYQYSIYRYGYWGQGTQVTVSS	low polyreactivity
QVQLVESGGGLVQAGGSLRLSCAASGRTFVSNDMGWYRQAPGKERELVATISSGASTYYADSVKGRFTISRDNAKITVYLQMNSLKPEDTAVYYCAAEVLVFGGGYDYWGQGTQVTVSS	low polyreactivity
QVQLVESGGGLVQAGGSLRLICAASGFIFFINDMGWYRQAPGKEREWVAAISWSGGSTYYADSVKGRFTISRDNEKNNFYIQMNSLKAEETAGYYFKTDVPTAQYDYWGQGTQVTVSS	low polyreactivity
